Reference: patent US20030166192A1 (published 2003)

T1: pro-caspase-4 (UniProt P49662 1-377, limits assumed)
T1 sequence (looked up): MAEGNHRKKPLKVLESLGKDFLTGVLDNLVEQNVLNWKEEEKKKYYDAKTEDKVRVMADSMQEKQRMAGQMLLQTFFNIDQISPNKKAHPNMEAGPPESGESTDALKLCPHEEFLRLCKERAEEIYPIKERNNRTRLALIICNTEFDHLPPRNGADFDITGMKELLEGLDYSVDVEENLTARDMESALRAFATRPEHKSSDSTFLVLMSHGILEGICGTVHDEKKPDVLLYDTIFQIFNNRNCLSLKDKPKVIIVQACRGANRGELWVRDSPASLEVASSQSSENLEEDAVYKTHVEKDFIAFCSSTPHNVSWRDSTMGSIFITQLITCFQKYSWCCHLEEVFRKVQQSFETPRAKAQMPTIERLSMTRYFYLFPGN

T2: Apaf-1 (human, UniProt O14727 1-1248, limits assumed)
T2 sequence (looked up): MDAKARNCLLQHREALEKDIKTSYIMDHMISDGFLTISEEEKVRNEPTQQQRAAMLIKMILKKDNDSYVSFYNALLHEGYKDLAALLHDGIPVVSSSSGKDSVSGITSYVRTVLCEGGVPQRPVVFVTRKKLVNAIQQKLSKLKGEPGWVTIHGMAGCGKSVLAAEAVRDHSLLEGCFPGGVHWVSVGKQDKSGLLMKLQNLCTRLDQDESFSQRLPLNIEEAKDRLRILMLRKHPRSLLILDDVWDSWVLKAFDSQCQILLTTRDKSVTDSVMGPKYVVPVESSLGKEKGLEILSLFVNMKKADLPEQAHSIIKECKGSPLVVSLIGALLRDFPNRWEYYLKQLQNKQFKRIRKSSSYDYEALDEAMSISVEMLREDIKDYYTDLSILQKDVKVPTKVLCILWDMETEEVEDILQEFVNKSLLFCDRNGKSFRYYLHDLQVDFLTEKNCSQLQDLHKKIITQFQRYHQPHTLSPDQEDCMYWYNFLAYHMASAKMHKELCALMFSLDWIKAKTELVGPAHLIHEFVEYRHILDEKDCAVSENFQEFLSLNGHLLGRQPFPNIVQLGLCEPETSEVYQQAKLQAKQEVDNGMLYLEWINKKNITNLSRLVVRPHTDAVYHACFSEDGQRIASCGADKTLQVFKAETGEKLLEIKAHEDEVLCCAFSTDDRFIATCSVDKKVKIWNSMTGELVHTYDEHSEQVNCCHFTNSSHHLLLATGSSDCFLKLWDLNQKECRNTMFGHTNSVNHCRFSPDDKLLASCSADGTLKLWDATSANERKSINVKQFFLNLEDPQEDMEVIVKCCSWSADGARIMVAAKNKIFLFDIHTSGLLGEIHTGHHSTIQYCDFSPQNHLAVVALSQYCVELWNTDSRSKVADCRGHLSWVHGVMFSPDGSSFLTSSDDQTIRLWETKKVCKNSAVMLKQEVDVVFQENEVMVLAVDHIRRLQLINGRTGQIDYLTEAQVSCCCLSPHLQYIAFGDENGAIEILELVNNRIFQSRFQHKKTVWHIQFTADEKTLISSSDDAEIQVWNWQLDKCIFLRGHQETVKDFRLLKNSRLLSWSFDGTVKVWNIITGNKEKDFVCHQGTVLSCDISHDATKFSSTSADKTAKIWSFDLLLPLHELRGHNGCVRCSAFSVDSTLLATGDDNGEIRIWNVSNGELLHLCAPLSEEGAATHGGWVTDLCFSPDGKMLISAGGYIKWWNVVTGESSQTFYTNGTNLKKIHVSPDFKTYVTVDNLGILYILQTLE

T3: pro-caspase-2 (UniProt P42575 1-452, limits assumed)
T3 sequence (looked up): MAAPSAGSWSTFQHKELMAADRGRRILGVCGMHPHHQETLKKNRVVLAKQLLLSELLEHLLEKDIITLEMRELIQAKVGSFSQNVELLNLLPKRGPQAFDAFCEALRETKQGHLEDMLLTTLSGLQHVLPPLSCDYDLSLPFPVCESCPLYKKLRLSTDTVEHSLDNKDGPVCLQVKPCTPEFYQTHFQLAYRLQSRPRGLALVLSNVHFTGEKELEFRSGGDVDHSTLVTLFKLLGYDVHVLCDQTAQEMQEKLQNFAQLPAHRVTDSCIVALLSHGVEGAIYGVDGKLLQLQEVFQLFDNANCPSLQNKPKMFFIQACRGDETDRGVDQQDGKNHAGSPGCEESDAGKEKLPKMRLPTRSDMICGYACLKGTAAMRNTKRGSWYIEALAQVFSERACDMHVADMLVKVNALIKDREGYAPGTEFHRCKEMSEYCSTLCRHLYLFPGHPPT

T4: c-CLAP (human, UniProt O95999 1-233, limits assumed)
T4 sequence (looked up): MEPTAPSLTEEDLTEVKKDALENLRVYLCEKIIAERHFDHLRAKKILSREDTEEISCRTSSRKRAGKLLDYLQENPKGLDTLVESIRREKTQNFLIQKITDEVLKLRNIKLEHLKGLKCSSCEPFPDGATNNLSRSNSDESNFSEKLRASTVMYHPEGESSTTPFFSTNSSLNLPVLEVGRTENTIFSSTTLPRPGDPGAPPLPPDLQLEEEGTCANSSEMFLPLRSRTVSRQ


Tests used:
CRADD [1] = target: T5, CRADD (human, UniProt P78560 1-199, limits assumed); test: GST pull-down in vitro or co-immunoprecipitation from 293 T cells (T7-CRADD with Flag-ICE-Like, Panel C of FIG. 2)
T5 construct: also called T7-tagged CRADD
Procedure: (§1) Human embryonic kidney 293 T cells, were cultured in […] dishes in Dulbecco modified essential medium (DMEM) supplemented with 10% fetal bovine serum (FBS) and antibiotics (Life Technologies). Cells at 50% confluency, were transiently co-transfected with equal amounts of T7-pcDNA3 and Flag-pCMV2 constructs (total DNA of 10 μg/dish) in OptiMEM using the lipofectamine method according to the manufacturer's recommendations (Life Technologies). Twelve hours after transfection, OptiMEM was replaced with DMEM/10% FBS. Twenty four hours later, cells were lysed in 300 μl of a buffer containing 25 mM tris(hydroxymethylaminomethane), pH 7.6, 150 mM NaCl, 1% nonidet-P40, and PMSF. Samples were centrifuged. One third of the supernatant was put aside to verify by Western blot the expression of the proteins. The remaining 200 μl of supernatant were incubated for 2 h at 4° C. with anti-Flag M5 plus M2 monoclonal antibodies (Ab; Sigma). The immune complexes were precipitated overnight at 4° C. with protein-G Sepharose (Amersham-Pharmacia Biotech), washed extensively and then eluted by boiling in SDS-sample buffer.

GST = target: T6, GST (UniProt P08515 1-218 = GST); test: GST pull-down on glutathione resin of in vitro translated 35S-labeled protein, autoradiography [panel B]
T6 construct: also called gluthatione-S-transferase; GST alone
Procedure: (§2) Cells were then centrifuged at 10000 g for 15 min and supernatants were incubated for 2 h at 4° C. with gluthatione Sepharose 4B resin (Amersham Pharmacia Biotech). The protein-bound resin (30 μl) was washed with GST buffer and incubated overnight at 4° C. in the presence of 5 μl of ³⁵S-labeled in vitro-translated products. Labeled proteins were prepared from pcDNA3 constructs by in vitro transcription and translation in the presence of ³⁵S-methionine using T7-coupled transcription/translation TNT kit according to the manufacturer's instructions (Promega, Madison, Wis.). Samples of the protein-bound resins were washed three times in GST buffer, boiled in sodium dodecyl sulfate (SDS) Laemmli sample buffer and fractionated by electrophoresis on an SDS-polyacrylamide gel. Proteins were then visualized by autoradiography.

pro-caspase-4 = target: T1, pro-caspase-4; test: GST pull-down in vitro or co-immunoprecipitation from 293 T cells (data not shown)
Procedure: as §2
as §1, with “buffer. The eluted proteins were resolved by SDS-PAGE and detected by Western blot analysis with horseradish peroxidase (HRP)-conjugated anti-T7 Ab (Novagen, Madison, Wis.). Bands were then detected using enhanced chemoluminescence kit (Amersham Pharmacia Biotech).” for “buffer.”

Apaf-1 = target: T2, Apaf-1; test: as above
Procedure: as §2
as §1, with “buffer. The eluted proteins were resolved by SDS-PAGE and detected by Western blot analysis with horseradish peroxidase (HRP)-conjugated anti-T7 Ab (Novagen, Madison, Wis.). Bands were then detected using enhanced chemoluminescence kit (Amersham Pharmacia Biotech).” for “buffer.”

c-IAP2 = c-IAP2 (UniProt Q13489 1-604, limits assumed); test: as above
Procedure: as §2
as §1, with “buffer. The eluted proteins were resolved by SDS-PAGE and detected by Western blot analysis with horseradish peroxidase (HRP)-conjugated anti-T7 Ab (Novagen, Madison, Wis.). Bands were then detected using enhanced chemoluminescence kit (Amersham Pharmacia Biotech).” for “buffer.”

pro-caspase-2 = target: T3, pro-caspase-2; test: as above
Procedure: as §2
as §1, with “buffer. The eluted proteins were resolved by SDS-PAGE and detected by Western blot analysis with horseradish peroxidase (HRP)-conjugated anti-T7 Ab (Novagen, Madison, Wis.). Bands were then detected using enhanced chemoluminescence kit (Amersham Pharmacia Biotech).” for “buffer.”

c-CLAP = target: T4, c-CLAP; test: as above
Procedure: as §2
as §1, with “buffer. The eluted proteins were resolved by SDS-PAGE and detected by Western blot analysis with horseradish peroxidase (HRP)-conjugated anti-T7 Ab (Novagen, Madison, Wis.). Bands were then detected using enhanced chemoluminescence kit (Amersham Pharmacia Biotech).” for “buffer.”

RICK [2] = target: T7, RICK (UniProt O43353 1-540, limits assumed, 35S label in the in vitro assay); test: restated from Example 3; construct not named
T7 construct: also called 35S-labeled RICK; RIP2

RICK [3] = target: T7, RICK; test: GST pull-down of 35S-labelled RICK (data not shown)
Procedure: as §2

Flag-tagged RICK = target: T8, Flag-tagged RICK (UniProt O43353 1-540); test: co-immunoprecipitation from 293 T cells cotransfected with Flag-RICK, T7-Casp1C/A and rising amounts of T7-ICE-Like: IP anti-Flag, western blot anti-T7 [panel B]
T8 construct: Expressed in 293 T cells, precipitated with anti-Flag antibodies; also called Flag-RICK; RIP2; not shown: Flag tag
Procedure: as §1, with “buffer. The eluted proteins were resolved by SDS-PAGE and detected by Western blot analysis with horseradish peroxidase (HRP)-conjugated anti-T7 Ab (Novagen, Madison, Wis.). Bands were then detected using enhanced chemoluminescence kit (Amersham Pharmacia Biotech).” for “buffer.”

CRADD [4] = target: T5, CRADD; test: GST pull-down in vitro or co-immunoprecipitation from 293 T cells (T7-CRADD with Flag-Pseudo-ICE, Panel C of FIG. 2)
Procedure: as §1

T7 sequence (O43353 whole entry): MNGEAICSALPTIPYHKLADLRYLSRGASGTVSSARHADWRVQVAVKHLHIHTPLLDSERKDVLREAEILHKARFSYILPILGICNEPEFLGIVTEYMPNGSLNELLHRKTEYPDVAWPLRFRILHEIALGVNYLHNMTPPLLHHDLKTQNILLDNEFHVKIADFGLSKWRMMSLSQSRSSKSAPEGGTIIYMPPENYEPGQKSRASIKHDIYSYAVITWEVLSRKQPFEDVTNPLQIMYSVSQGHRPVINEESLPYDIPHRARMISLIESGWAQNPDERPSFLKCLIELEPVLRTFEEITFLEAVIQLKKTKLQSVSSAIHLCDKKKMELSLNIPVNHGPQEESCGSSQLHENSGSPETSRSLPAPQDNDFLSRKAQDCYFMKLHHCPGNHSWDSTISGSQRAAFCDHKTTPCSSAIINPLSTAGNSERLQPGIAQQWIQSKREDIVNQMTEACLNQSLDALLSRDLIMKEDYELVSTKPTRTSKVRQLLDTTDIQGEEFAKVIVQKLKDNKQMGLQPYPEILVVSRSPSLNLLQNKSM
T5 sequence (P78560 whole entry): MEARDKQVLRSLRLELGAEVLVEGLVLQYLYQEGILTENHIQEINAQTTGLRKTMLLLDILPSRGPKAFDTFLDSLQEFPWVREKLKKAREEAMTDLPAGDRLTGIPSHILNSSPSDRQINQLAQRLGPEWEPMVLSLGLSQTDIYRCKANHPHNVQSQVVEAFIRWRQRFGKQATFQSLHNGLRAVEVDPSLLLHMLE
Chain of c-IAP2 (Q13489 whole entry): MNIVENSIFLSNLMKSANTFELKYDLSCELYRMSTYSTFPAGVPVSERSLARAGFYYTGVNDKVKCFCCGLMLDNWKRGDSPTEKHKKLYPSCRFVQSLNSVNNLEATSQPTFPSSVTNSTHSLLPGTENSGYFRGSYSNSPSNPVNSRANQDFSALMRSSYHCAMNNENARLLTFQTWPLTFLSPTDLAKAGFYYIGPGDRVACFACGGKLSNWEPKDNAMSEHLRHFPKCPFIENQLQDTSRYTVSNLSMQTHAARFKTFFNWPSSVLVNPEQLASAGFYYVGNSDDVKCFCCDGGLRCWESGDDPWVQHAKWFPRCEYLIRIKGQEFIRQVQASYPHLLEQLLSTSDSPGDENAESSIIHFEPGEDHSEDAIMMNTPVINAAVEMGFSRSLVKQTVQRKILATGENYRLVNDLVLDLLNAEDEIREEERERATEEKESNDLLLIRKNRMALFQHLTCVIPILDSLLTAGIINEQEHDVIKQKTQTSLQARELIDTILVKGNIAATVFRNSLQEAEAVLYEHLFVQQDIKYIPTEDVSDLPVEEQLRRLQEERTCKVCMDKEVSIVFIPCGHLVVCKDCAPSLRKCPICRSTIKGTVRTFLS
T6 sequence (P08515 whole entry): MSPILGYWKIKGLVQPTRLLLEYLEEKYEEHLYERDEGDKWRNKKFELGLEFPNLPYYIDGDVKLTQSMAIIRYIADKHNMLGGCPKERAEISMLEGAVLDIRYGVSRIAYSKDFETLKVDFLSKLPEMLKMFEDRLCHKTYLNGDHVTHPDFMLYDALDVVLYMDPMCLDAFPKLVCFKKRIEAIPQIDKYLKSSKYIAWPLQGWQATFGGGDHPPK
T8 sequence (O43353 whole entry): as the sequence (O43353 whole entry) above

| Binder | binding result (CRADD [1]) | binding result (GST) | binding result (pro-caspase-4) | binding result (Apaf-1) | binding result (c-IAP2) | binding result (pro-caspase-2) | binding result (c-CLAP) | binding result (RICK [2]) | binding result (RICK [3]) | binding result (Flag-tagged RICK) | binding result (CRADD [4]) |
| --- | --- | --- | --- | --- | --- | --- | --- | --- | --- | --- | --- |
| ICE-Like (other, 35S-methionine label in the in vitro assay, Used for the 35S-labelled in vitro translated product (made from a pcDNA3 construct); also called 35S-labeled ICE-Like; in vitro translated ICE-Like) MADQLLRKKRRIFIHSVGAGTINALLDCLLEDEVISQEDMNKVRDENDTVMDKARVLIDLVTGKGPKSCCKFIKHLCEEDPQLASKMGLH | no binding | no binding | no binding | no binding | no binding | no binding | no binding | no binding |  |  |  |
| GST-conjugated ICE-Like (other, GST is put first by the usual make of pGEX vectors; also called ICE-Like-GST; GST-ICE-Like; not shown: glutathione-S-transferase (GST) from vector pGEX-5X 3) MADQLLRKKRRIFIHSVGAGTINALLDCLLEDEVISQEDMNKVRDENDTVMDKARVLIDLVTGKGPKSCCKFIKHLCEEDPQLASKMGLH |  |  |  |  |  |  |  |  | no binding |  |  |
| T7-tagged ICE-Like (other, not shown: small tags and cut ends, Expressed from pcDNA3 in 293 T cells, or from pMSCVneo retroviral vector in THP-1 cells; also called T7-ICE-Like) MADQLLRKKRRIFIHSVGAGTINALLDCLLEDEVISQEDMNKVRDENDTVMDKARVLIDLVTGKGPKSCCKFIKHLCEEDPQLASKMGLH |  |  |  |  |  |  |  |  |  | no binding |  |
| Pseudo-ICE (other, 35S-methionine label in the in vitro assay, Used for the 35S-labelled in vitro translated product (made from a pcDNA3 construct); also called 35S-labeled Pseudo-ICE; in vitro translated Pseudo-ICE) MADKVLKEKRKLFIHSMGEGTINGLLDELLQTRVLNQEEMEKVKRENATVMDKTRALIDSVIPKGAQACQICITYICEEDSYLAETLGLSAGPIPGN |  | no binding | no binding | no binding | no binding | no binding | no binding | binds |  |  | no binding |
